Target: LysP-GFP (Pseudomonas aeruginosa PAO1 LysP fused to GFP-His8) (Pseudomonas aeruginosa strain PAO1, UniProt Q9HVG3)
Experiment: GFP thermal shift

B1: nanobody Nb5755 (VHH)
VHH: QVQLQESGGGLVQGGSLRLSCAASGRTFSIYGMAWVRQASGKEREFVAAMPRGGGTTNYADSVKGRFSISRDNAKNTVDLQMNSLKPEDTAVYYCVADRGFTLRLGIQHDYWGQGTQVTVSS
increase in melting temperature: 20 °C

— doi:10.1101/2024.05.17.594718 (bioRxiv, 2024)
